# From patent publication US20250043302A1, “MUTATED HYDROXYPHENYLPYRUVATE DIOXYGENASE POLYPEPTIDE, AND CODING GENE AND USE THEREOF” (BEIJING DABEINONG BIOTECHNOLOGY CO., LTD., priority 2021, published 2025)
# B1: ZmHPPDm-F372A-F383W-02: nucleotide sequence encoding Zea mays HPPD with F372A+F383W; vector DBN11769 (nucleic acid)
# DNA: ATGCCACCCACACCCACAGCAGCAGCGGCGGGCGCAGCGGTCGCAGCGGCGTCAGCGGCGGAGCAAGCGGCGTTCAGATTGGTTGGTCACCGCAACTTCGTGAGATTCAATCCTCGCTCAGATAGATTCCATACTCTGGCCTTCCACCATGTTGAGCTTTGGTGCGCTGATGCTGCTTCTGCTGCTGGAAGGTTCAGCTTCGGTTTGGGTGCTCCCCTCGCTGCTAGATCTGATTTGAGCACTGGTAACTCAGCACATGCTTCCCTCCTGCTTAGATCTGGCTCTCTGAGCTTCCTTTTCACTGCTCCATATGCTCATGGTGCTGATGCTGCTACAGCTGCTCTCCCTTCATTCTCCGCTGCTGCTGCTAGGAGATTCGCTGCTGATCACGGATTGGCTGTGAGGGCTGTTGCACTTAGAGTTGCTGATGCTGAGGAGGCCTTCCGCACCTCTGTTGCTGCTGGAGCCAGACCAGCTTTCGGACCTGTTGATCTCGGAAGGGGTTTCCGCCTGGCTGAGGTGGAGCTTTACGGCGATGTGGTTCTGCGCTACGTTAGCTATCCTGATGGTGCTGCTGGTGAACCTTTCCTTCCAGGATTCGAGGGTGTGGCCTCACCAGGTGCCGCTGATTACGGCCTGTCCAGATTCGACCACATTGTTGGAAATGTTCCTGAGCTTGCTCCAGCTGCTGCCTACTTCGCTGGCTTCACCGGATTCCATGAGTTCGCCGAGTTCACCACTGAGGATGTGGGAACTGCTGAGTCTGGTTTGAATAGCATGGTGCTCGCCAACAATTCAGAGAACGTTTTGCTCCCTCTGAATGAGCCCGTGCACGGAACAAAGAGAAGGTCCCAGATTCAAACCTTCTTGGATCACCACGGCGGCCCAGGTGTTCAGCATATGGCTCTCGCCTCCGATGACGTGTTGAGAACCCTCAGGGAGATGCAAGCCAGGTCTGCTATGGGTGGCTTCGAGTTCATGGCCCCACCTACAAGCGATTACTATGATGGTGTGCGCAGAAGGGCTGGCGACGTTCTTACCGAGGCTCAGATCAAGGAGTGCCAAGAGCTGGGCGTGCTTGTTGATAGAGATGACCAGGGAGTTCTGCTTCAAATTGCTCCCAAGCCAGTGGGCGACAGGCCTACTTTGTGGCTCGAGATTATCCAGAGAATCGGATGCATGGAGAGGGATGAGAAGGGTCAGGAGTACCAAAAGGGAGGTTGCGGCGGATTCGGCAAGGGAAATTTCTCACAACTCTTCAAGTCCATCGAGGACTATGAAAAGAGTCTGGAAGCGATGCAGGCAGCAGCAGCAGCAACCGCACAGGGGTCGTGA
# modifications: ZmHPPDm-F372A-F383W-02 Nucleotide Sequence
# notes: vector DBN11769
# How the values were obtained:
# Format in all cases: in vivo
# [1] = system: Arabidopsis thaliana T1 plants; assay: Topramezone tolerance of transgenic Arabidopsis thaliana T1 plants (spray, bleached leaf area grade, damage score); settings: 7 DAT, Table 4; for Classification and statistics of the grade of pesticide damage: Grade 0 / Classification and statistics of the grade of pesticide damage: Grade 1 / Classification and statistics of the grade of pesticide damage: Grade 2 / Classification and statistics of the grade of pesticide damage: Grade 3: number of plants; for Scores: pesticide damage score 0-100
# How it was run: (§1)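 Damage graded 0–3 from the proportion of bleached leaf area 7 days after spraying. Plants were glufosinate-selected T1 lines, 18 days after sowing, plus vector and wild-type controls. Rates: mesotrione 52.5–420, isoxaflutole 35–280, topramezone 25–200 g ai/ha, with water (0×).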
# [2] = system: Arabidopsis thaliana T1 plants; assay: Isoxaflutole tolerance of transgenic Arabidopsis thaliana T1 plants (spray, bleached leaf area grade, damage score); set-up: Scores (pesticide damage): scale not given here; settings: spray, Arabidopsis thaliana T1 plants; for Classification and statistics of the grade of pesticide damage: Grade 0 (number of plants) / Classification and statistics of the grade of pesticide damage: Grade 1 (number of plants) / Classification and statistics of the grade of pesticide damage: Grade 2 (number of plants) / Classification and statistics of the grade of pesticide damage: Grade 3 (number of plants): 16 plants
# How it was run: as §1
# [3] = system: Arabidopsis thaliana T1 plants; assay: Mesotrione tolerance of transgenic Arabidopsis thaliana T1 plants (spray, bleached leaf area grade, damage score); set-up: Scores: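 damage score 0-100 computed as Σ(N×S)/(T×M)×100 over grades 0-3 with higher meaning more damage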; settings: Arabidopsis thaliana T1 plants; for Grade 0 (classification and statistics of the grade of pesticide damage; number of plants) / Grade 1 (classification and statistics of the grade of pesticide damage; number of plants) / Grade 2 (classification and statistics of the grade of pesticide damage; number of plants) / Grade 3 (classification and statistics of the grade of pesticide damage; number of plants): 16 plants
# How it was run: as §1
# [4] = isoxaflutole 35 g ai/ha (0.5x field concentration)
# [5] = isoxaflutole 70 g ai/ha (1x field concentration)
molecule,measurement,setting,value
B1,Classification and statistics of the grade of pesticide damage: Grade 0,[1]; topramezone 25 g ai/ha (1×),16
same,Classification and statistics of the grade of pesticide damage: Grade 1,[1]; topramezone 25 g ai/ha (1×),0
same,Classification and statistics of the grade of pesticide damage: Grade 2,[1]; topramezone 25 g ai/ha (1×),0
same,Classification and statistics of the grade of pesticide damage: Grade 3,[1]; topramezone 25 g ai/ha (1×),0
same,Classification and statistics of the grade of pesticide damage: Grade 0,[1]; topramezone 100 g ai/ha (4×),10
same,Classification and statistics of the grade of pesticide damage: Grade 1,[1]; topramezone 100 g ai/ha (4×),5
same,Classification and statistics of the grade of pesticide damage: Grade 2,[1]; topramezone 100 g ai/ha (4×),1
same,Classification and statistics of the grade of pesticide damage: Grade 3,[1]; topramezone 100 g ai/ha (4×),0
same,Scores,[1]; topramezone 25 g ai/ha (1×),0
same,Scores,[1]; topramezone 100 g ai/ha (4×),15
same,Resistance evaluation,[1]; topramezone 25 g ai/ha (1×),highly
same,Resistance evaluation,[1]; topramezone 100 g ai/ha (4×),highly
same,Resistance evaluation,[2]; [4],Moderately
same,Scores (pesticide damage),[2]; [4],25
same,Classification and statistics of the grade of pesticide damage: Grade 0 (number of plants),[2]; [4],5
same,Classification and statistics of the grade of pesticide damage: Grade 1 (number of plants),[2]; [4],10
same,Classification and statistics of the grade of pesticide damage: Grade 2 (number of plants),[2]; [4],1
same,Classification and statistics of the grade of pesticide damage: Grade 3 (number of plants),[2]; [4],0
same,Resistance evaluation,[2]; [5],Poorly
same,Scores (pesticide damage),[2]; [5],38
same,Classification and statistics of the grade of pesticide damage: Grade 0 (number of plants),[2]; [5],3
same,Classification and statistics of the grade of pesticide damage: Grade 1 (number of plants),[2]; [5],8
same,Classification and statistics of the grade of pesticide damage: Grade 2 (number of plants),[2]; [5],5
same,Classification and statistics of the grade of pesticide damage: Grade 3 (number of plants),[2]; [5],0
same,Resistance evaluation,[3]; mesotrione 52.5 g ai/ha,Highly resistant
same,Scores,[3]; mesotrione 52.5 g ai/ha,15
same,Grade 0 (classification and statistics of the grade of pesticide damage; number of plants),[3]; mesotrione 52.5 g ai/ha,9
same,Grade 1 (classification and statistics of the grade of pesticide damage; number of plants),[3]; mesotrione 52.5 g ai/ha,7
same,Grade 2 (classification and statistics of the grade of pesticide damage; number of plants),[3]; mesotrione 52.5 g ai/ha,0
same,Grade 3 (classification and statistics of the grade of pesticide damage; number of plants),[3]; mesotrione 52.5 g ai/ha,0
same,Resistance evaluation,[3]; mesotrione 105 g ai/ha,Moderately
same,Scores,[3]; mesotrione 105 g ai/ha,33
same,Grade 0 (classification and statistics of the grade of pesticide damage; number of plants),[3]; mesotrione 105 g ai/ha,3
same,Grade 1 (classification and statistics of the grade of pesticide damage; number of plants),[3]; mesotrione 105 g ai/ha,10
same,Grade 2 (classification and statistics of the grade of pesticide damage; number of plants),[3]; mesotrione 105 g ai/ha,3
same,Grade 3 (classification and statistics of the grade of pesticide damage; number of plants),[3]; mesotrione 105 g ai/ha,0
